{"source": "paper PMC6773438", "parents": {"B1": {"name": "Ramazzottius varieornatus damage suppressor protein (Rv Dsup) [Ramazzottius varieornatus] / mononucleosomes reconstituted by salt dialysis with purified recombinant Drosophila core histones [Drosophila] (parent)", "chain 1": "MASTHQSSTEPSSTGKSEETKKDASQGSGQDSKNVTVTKGTGSSATSAAIVKTGGSQGKDSSTTAGSSSTQGQKFSTTPTDPKTFSSDQKEKSKSPAKEVPSGGDSKSQGDTKSQSDAKSSGQSQGQSKDSGKSSSDSSKSHSVIGAVKDVVAGAKDVAGKAVEDAPSIMHTAVDAVKNAATTVKDVASSAASTVAEKVVDAYHSVVGDKTDDKKEGEHSGDKKDDSKAGSGSGQGGDNKKSEGETSGQAESSSGNEGAAPAKGRGRGRPPAAAKGVAKGAAKGAAASKGAKSGAESSKGGEQSSGDIEMADASSKGGSDQRDSAATVGEGGASGSEGGAKKGRGRGAGKKADAGDTSAEPPRRSSRLTSSGTGAGSAPAAAKGGAKRAASSSSTPSNAKKQATGGAGKAAATKATAAKSAASKAPQNGAGAKKKGGKAGGRKRK", "chain 2": "not shown", "chain 3": "not shown", "chain 4": "not shown", "chain 5": "not shown"}}}
{"variants_of": "B1", "assay": "gel mobility shift", "conditions": "Dsup/Nucleosome 3.0, mononucleosome, 5S rDNA sequence (147 bp), parent: 73", "units": {"response": "% Bound"}}
{"variant": "chain 1 R363E R364E R367E", "response": 47}
{"variants_of": "B1", "assay": "gel mobility shift", "conditions": "Dsup/Nucleosome 4.5, mononucleosome, 5S rDNA sequence (147 bp), parent: 95", "units": {"response": "% Bound"}}
{"variant": "chain 1 R363E R364E R367E", "response": 69}
